Laboratory results as given in US20160075746A1 (published 2016).
Primed or numbered codes have the meaning given here. [ ]: non-standard residue; d: D form. The star is where a group is joined. PE = proline (from (4R)-azidoproline) carrying a 1,2,3-triazole-linked chondroitin sulfate E (CS-E) disaccharide; Biotin = O=C1N[C@H]2[C@H](CS[C@H]2CCCCC(=O)*)N1; PEG12″ = not defined here; PEG12′ = PEG12: -

What was measured:
[1] = molecular target: nerve growth factor (NGF); assay: SPR, glycopeptide immobilised, NGF analyte, two-state model
[2] = molecular target: nerve growth factor (NGF); assay: SPR, glycopeptide immobilised, NGF analyte, two-state model, kd1
[3] = molecular target: nerve growth factor (NGF); assay: SPR (Biacore T100), glycopeptide immobilised on streptavidin CM5 chip, NGF 11-185 nM as analyte, two-state model, ka1
[4] = molecular target: nerve growth factor (NGF); assay: cell-based or functional assay
[5] = molecular target: nerve growth factor (NGF); assay: SPR, two-state model, comparison of KD values with glycopeptide 1
[6] = molecular target: nerve growth factor (NGF); assay: ELISA, glycopeptide on streptavidin plate, NGF 0-60 nM, anti-NGF-HRP detection

Chain of nerve growth factor (NGF) (chain, as listed by the source): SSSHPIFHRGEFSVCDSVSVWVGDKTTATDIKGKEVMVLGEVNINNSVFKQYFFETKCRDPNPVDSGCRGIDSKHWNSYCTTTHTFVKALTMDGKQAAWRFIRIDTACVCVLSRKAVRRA

Row | Kd [1] | koff [2] | kon [3] | NGF-induced TrkA phosphorylation (Western blot, pTrkA/TrkA ratio) in PC12 cells [4] | fold stronger binding to NGF than agent 1 (by KD) [5] | fold increase in NGF binding as compared to 1 [6] | fold increase in NGF binding affinity in comparison to 1 [6] | Binder
1 | 2500 nM | 0.0322 s⁻¹ | 1950 M⁻¹ s⁻¹ |  |  |  |  | {Biotin-PEG12′}-[PE][PE][PE][PE][PE][PE][PE][PE][PE][PE][PE][PE]-OMe (Immobilised through biotin on streptavidin in ELISA and SPR; also called agent 1; CS-E sulfated glycopeptide 1) [glycopeptide 1]
2 | 137 nM | 0.0274 s⁻¹ | 46500 M⁻¹ s⁻¹ | ~40% | ~18 fold | 4.6 fold |  | {Biotin-PEG12′}-PP[PE]PP[PE]PP[PE]PP[PE]PP[PE]PP[PE]PP[PE]PP[PE]PP[PE]PP[PE]PP[PE]PP[PE]-OMe (All 12 CS-E disaccharides lie along one face of the PPII helix; also called agent 5; compound 5) [glycopeptide 5]
3 |  |  |  |  |  |  | ~2.6 fold | {Biotin-PEG12″}-P[PE]P[PE]P[PE]P[PE]P[PE]P[PE]P[PE]P[PE]P[PE]P[PE]P[PE]P[PE]-OMe (also called agent 4; (PPE)12) [glycopeptide 4]
